Laboratory results taken from patent US20260224629A1 (Memorial Sloan Kettering, published 2026).

Biological target: T1, murine DLL3 (murine, UniProt O88516 33-592)
T1 construct: whole, on cells; Expressed endogenously on the murine SCLC (mSCLC) cell line; also called mDLL3; mouse DLL3
T1 sequence (looked up): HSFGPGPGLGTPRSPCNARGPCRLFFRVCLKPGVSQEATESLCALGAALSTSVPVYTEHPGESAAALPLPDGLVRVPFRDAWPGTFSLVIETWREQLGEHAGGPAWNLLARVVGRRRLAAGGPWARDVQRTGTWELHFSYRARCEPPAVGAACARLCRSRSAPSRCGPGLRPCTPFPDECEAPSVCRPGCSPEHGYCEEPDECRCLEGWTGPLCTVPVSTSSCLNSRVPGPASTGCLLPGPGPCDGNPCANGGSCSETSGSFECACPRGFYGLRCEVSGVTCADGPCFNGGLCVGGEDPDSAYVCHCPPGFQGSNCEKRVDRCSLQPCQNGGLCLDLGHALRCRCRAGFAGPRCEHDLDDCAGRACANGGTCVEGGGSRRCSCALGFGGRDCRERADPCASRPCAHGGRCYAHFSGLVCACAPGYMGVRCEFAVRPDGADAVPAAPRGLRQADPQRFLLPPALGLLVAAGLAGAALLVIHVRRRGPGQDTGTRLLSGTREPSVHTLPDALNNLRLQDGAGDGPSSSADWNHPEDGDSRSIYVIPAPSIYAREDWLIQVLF
Assay: told in words; shown by lysis and IFN-γ release of CAR T cells in coculture with mSCLC cells that express murine DLL3
Experimental: The CAR consists of the SC16.8 single-chain variable fragment (scFv) and murine CD28 and CD3ζ domains. FIG. 2B measures the IFN-γ levels in supernatant of 24-hour coculture of murine CAR T cells with or without mSCLC cells. **P<0.01, ****P<0.0001 (2-way ANOVA, n=2). FIG. 2C depicts the survival of mice with metastatic mSCLC that were treated with the indicated doses of SC16.8m28mz CAR T cells (day 7) with or without 50 mg/kg cyclophosphamide pretreatment (day 6). **P<0.01 (log-rank test, n=4-6). FIG. 2D is a schematic of CAR design with SC16.8 scFv, murine CD28 and CD3ζ signaling domains, and the murine 1112 fusion transgene or murine 1118 transgene. IRES, internal ribosome entry site. FIG. 2E illustrates IFN-γ production by the respective CAR T cells in the absence and presence of mSCLC cells. *P<0.05, **P<0.01, ***P<0.001, ****P<0.0001 (2-way ANOVA and Student's t test, n=2-3). FIG. 2F depicts a luciferase killing assay with SC16.8 CAR T cells that express IL-12, IL-18, or no cytokine and 4H11 CAR T cells as negative control (n=3). FIGS. 2G and 2H depict serum IFN-γ and TNF-α levels (n=12-15) (2G) and circulating CAR T cells (n=5) (2H) in the blood of mice collected 3 days after treatment with the indicated CAR T cells. **P<0.01, ***P<0.001, ****P<0.0001 (1-way ANOVA). […] FIG. 2J illustrates the survival of mice in FIG. 2I. *P<0.05, ****P<0.0001 (log-rank test). […]

B1: SC16.8m28mz CAR (SC16.8 scFv with Flag-tag, murine CD28 transmembrane and intracellular domain and murine CD3zeta intracellular domain, on murine T cells) (scFv, V domains shown)
VH: QAQLQQSGAELVRPGTSVKVSCKASGYAFTNYLIEWVKQRPGQGLEWIGVINPGTGGTNYNENFKGKATLTADKSSSTAYMQLSSLTSDDSAVYFCARSPYDYHEGAMDYWGQGTSVTVSS
VL: EIQMTQSPSSMSASLGDRITITCQATQDIVKNLNWYQQKPGKPPSFLIYYAIELAEGVPSRFSGSGSGSDYSLTISNLESEDFADYYCLQFYEFPFTFGAGTKLELK
notes: Tested as a membrane CAR on transduced murine T cells; VH and VL are joined as an scFv; also called SC16.8 CAR (murine CAR T cells); the presently disclosed CAR
binding result: binds
